Source: the supplement of paper PMC9170038

Test system: MS2 coat protein
Assay: apparent KD of MS2 coat protein; designed switch direction (-1 OFF switch, 1 ON switch): -1; higher = weaker reporter binding
Summary of the method: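 RNA switches sharing common flanks were transcribed by stalled E. coli RNA polymerase on Illumina chips. A doubling series of SNAP-549-labelled MS2 coat protein, from 0.7 or 1.5 nM to 3 µM, was applied in Tris-HCl pH 7.5 buffer with KCl, MgCl2, BSA, DTT, tRNA and Tween-20. Each step lasted 0.8–1.5 h at the bottom of the series and 10–20 min at the top. Normalised cluster fluorescence was curve-fitted, giving apparent KD as the per-design median over clusters.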

[1] = Eterna round: R95, input ligand: FMN 200 uM
[2] = Eterna round: R95, input ligand: microRNA oligo, concentration not stated
[3] = Eterna round: R95, input ligand: none
[4] = input ligand: microRNA oligo, concentration not stated

Row | Sequence | apparent KD of MS2 coat protein [1] [nM] | apparent KD of MS2 coat protein [2] [nM] | apparent KD of MS2 coat protein [3] [nM] | apparent KD of MS2 coat protein (input ligand: FMN 200 uM) [nM] | apparent KD of MS2 coat protein [4] [nM] | apparent KD of MS2 coat protein (input ligand: none) [nM]
1 | CGUAUCUUUCACGUGAGUAGUGGGUGCAACAGGUGGGUUACAUGAGGAUCACCCAUGUCCUCACUUGCUCGUCUUAU [Grok-var2-05] (puzzle: Sensor v3, turn-off variant 2) | 37.8 | 124 | 37.5 | – | – | –
2 | CUCCGGCGUGUAGGAUAUGGAUCCGAUUAGGAUCCAGAAGGACAUGAGGAUCACCCAUGUACAUGUAAACAGUCAUCACCGGGC [salish99_ExNG1_r04_205] (Eterna round: R96, puzzle: Exclusion NG 1) | – | – | – | 131 | 18.2 | 21.4
3 | CCUCCACAUGAGGAUCACCCAUGUCAGGAUAUAGGAUUGCUAUCAUGAGAGGAUGGCGUUAGAAGGGACAUCAC [Eternabot (L1) Solution 69] (Eterna round: R97, puzzle: Exclusion 1) | – | – | – | 44.5 | – | 40
4 | GGCCCUAGGGUCAGACGCACAAGCUUUUUGCUCGUUUUAACAUGAGGAUCACCCAUGUCUAGUGGAUCUGAUCGGGU [Mausinonra] (Eterna round: R96, puzzle: Sensor v3, turn-off variant 2) | – | – | – | 19.6 | 96.8 | 25.8
5 | UCGCUGCGAGGAUAUACAUGAGGAUCACCCAUGUGCGGGUCCGGGUUUUCGUCCAUUAGUAGAAGGCGCAGUGA [JL Laongeedie mod 3] (puzzle: Exclusion 3) | – | 269 | – | – | – | –
6 | UUCGGGUCAGGAUAUUGUUAGUUUAGUUGUUUGUAUUAGUUCGAGAAGGGACAUGAGGAUCACCCAUGUGGUAA [Ex4 #81] (Eterna round: R97, puzzle: Exclusion 4) | – | – | – | 71.5 | – | 160
7 | AAUCAGUGUGUGAGGAUAUUGGUGGAGUGACUUAUUAAGAAGGCACAUGAGGAUCACCCAUGUGGGAAGUCAGG [JR_BMEx4_Sub017] (Eterna round: R97, puzzle: Brourd's mod of Exclusion 4) | – | – | – | 13.9 | – | 14.8
8 | AACGAUCUAGGAUAUACAUGAGGAUCACCCAUGUAAGAGCCCAAACCAGGCUCCCUCUGUAGAAGGAGGUCAAA [Teleerre] (puzzle: Exclusion 3) | – | 40.8 | – | – | – | –
9 | GAAAACGAAGAGGAUAUUUGAUAUCAUAGCUUCAAAGAAGGCUUCACAUGAGGAUCACCCAUGUGAUCUUCAAA [jl-ex6-4.06 ViennaUCT mod] (Eterna round: R97, puzzle: Exclusion 6) | – | – | – | 95.8 | – | 22.7
10 | ACCUCACAUGAGGAUCACCCAUGUCAGGAUAUAAAAGGAGGGCGAGGCAGCCAGGAAGUUAGAAGGGACACGCU [EX1 B.11] (Eterna round: R97, puzzle: Exclusion 1) | – | – | – | 21.2 | – | 23.7
11 | UUGCUCCCUUAGUACUCUACAAGCUUUUUGUUCGUUUUAACAUGAGGAUCACCCAUGUCUAGUGGAUCUGAUCGGGU [JL ViennaUCT Isreen mod 4] (puzzle: Sensor v3, turn-off variant 2) | 136 | 226 | 165 | – | – | –
12 | ACCUCACAUGAGGAUCACCCAUGUCAGGAUAUGUACCUGGUCUAGUCAAAGACCAGAAGCAGAAGGGACUGCGG [Ria] (puzzle: Exclusion 1) | 29.7 | 87.8 | 106 | – | – | –
13 | ACUCCUGAUGUUAGGAUAUCAGGCGCGACAGCGGAUGAGAAGGAACAUGAGGAUCACCCAUGUGGGCUUAUCAA [Reedonso] (Eterna round: R97, puzzle: Brourd's mod of Exclusion 4) | – | – | – | 325 | – | 81.6
14 | UGAAGUUGUGUGAGGAUAUCGGGCCCGAAAGGGCCCGAGAAGGCACAUGAGGAUCACCCAUGUAAGCGGCUUCG [-37.8, -35.7 kcal, A 26%, 0-3] (Eterna round: R97, puzzle: Brourd's mod of Exclusion 4) | – | – | – | 15.8 | – | 19.6
